This is an account of results in patent publication EP4803542A2 (Sanofi Biotechnology, dated 2026).

The test has as its target T1, human IL-1R3 expressed on cells (SK-MEL-30 and other human cell lines) (human, UniProt Q9NPH3 21-570).
T1 construct: whole, on cells; also called hIL1R3; IL-1RAcP
T1 sequence (looked up): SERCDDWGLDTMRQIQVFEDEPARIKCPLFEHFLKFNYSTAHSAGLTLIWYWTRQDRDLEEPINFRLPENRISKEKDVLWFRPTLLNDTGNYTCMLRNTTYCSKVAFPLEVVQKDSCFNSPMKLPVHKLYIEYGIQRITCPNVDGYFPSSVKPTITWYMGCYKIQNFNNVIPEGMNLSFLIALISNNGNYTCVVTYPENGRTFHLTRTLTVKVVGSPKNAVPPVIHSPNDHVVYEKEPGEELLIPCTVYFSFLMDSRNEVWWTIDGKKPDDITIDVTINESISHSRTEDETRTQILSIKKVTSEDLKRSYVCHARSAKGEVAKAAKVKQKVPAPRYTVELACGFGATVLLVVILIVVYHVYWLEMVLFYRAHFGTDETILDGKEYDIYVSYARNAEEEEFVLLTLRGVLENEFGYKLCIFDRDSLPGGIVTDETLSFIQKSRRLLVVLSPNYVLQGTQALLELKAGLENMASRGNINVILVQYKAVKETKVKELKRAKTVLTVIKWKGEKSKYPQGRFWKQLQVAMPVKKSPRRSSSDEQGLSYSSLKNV
The experiment in a line: flow cytometry on the high-IL-1R3-expressing cell line SK-MEL-30. Background: A flow cytometer gives signals particle by particle.

B1: MAB-16-0030, humanized anti-IL-1R3 IgG1-LALA antibody (antibody, V domains shown)
VH: EVQLEESGGRLVQPGTSLRLSCAVSGFSLSSYDMSWVRQAPGKGLEWVSTIYIGGTTAYASWPKGRFTISKTNSKNTLYLQMNSLRAEDTAVYFCARLQGANYYNSLALWGQGTLVTVSS
VL: DVQMTQSPSSLSASVGDRVTITCQASQSIYSFLSWYQQKPGQAPKLLIYAASDLESGVPSRFSGSGSGTDFTLTISSLQPEDFATYYCQCNYIIDYGAFGQGTKVVIKR
notes: Humanized IgG1 with L234A and L235A (IgG1-LALA); also called anti-hIL-1R3 antibody MAB-16-0030; IgG1-LALA version of MAB-16-0030
As for B1, it took 0.307 µg/mL to reach a half-maximal effect (EC50).
